The target of assay [1] is human TIGIT stably expressed on cells (Jurkat; 293T) (human) (UniProt Q495A1). The assay can be described thus: cell-based or functional assay.
The target is the same in assay [2]. The assay is described as follows: whole cell binding, flow cytometry, n=3.
The target of assay [3] is recombinant cynomolgus TIGIT (cyno-TIGIT ECD) (cynomolgus monkey). The assay can be described thus: ELISA on recombinant cyno-TIGIT. For orientation: An ELISA detects its analyte on a solid surface through an enzyme-linked reagent.
The target of assay [4] is recombinant human TIGIT extra cellular domain (ECD) protein (human) (UniProt Q495A1). The assay is described as follows: ELISA on recombinant human TIGIT ECD.
In assay [5] the target is human TIGIT stably expressed on cells (Jurkat; 293T) (human) (UniProt Q495A1). The assay is described as follows: flow cytometry (CytoFlex), whole cell binding on h-TIGIT cells; representative of three experiments.
Assay [6] concerns the target recombinant mouse-TIGIT (mouse) (UniProt P86176). The assay can be described thus: ELISA on recombinant mouse-TIGIT.

Chain of human TIGIT stably expressed on cells (Jurkat; 293T) (human) (Q495A1 22-244 limits assumed): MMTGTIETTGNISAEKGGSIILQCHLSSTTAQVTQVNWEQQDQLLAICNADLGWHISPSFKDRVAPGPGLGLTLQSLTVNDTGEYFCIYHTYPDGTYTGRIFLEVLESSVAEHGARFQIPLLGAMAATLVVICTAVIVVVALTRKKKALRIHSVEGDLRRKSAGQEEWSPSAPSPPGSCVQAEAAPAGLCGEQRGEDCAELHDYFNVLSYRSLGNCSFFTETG
Chain of recombinant human TIGIT extra cellular domain (ECD) protein (human) (Q495A1 22-138 limits assumed): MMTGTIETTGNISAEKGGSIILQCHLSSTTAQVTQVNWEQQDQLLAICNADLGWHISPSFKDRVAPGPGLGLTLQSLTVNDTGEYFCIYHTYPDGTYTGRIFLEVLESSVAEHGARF
Chain of recombinant cynomolgus TIGIT (cyno-TIGIT ECD) (cynomolgus monkey) (chain, as listed by the source): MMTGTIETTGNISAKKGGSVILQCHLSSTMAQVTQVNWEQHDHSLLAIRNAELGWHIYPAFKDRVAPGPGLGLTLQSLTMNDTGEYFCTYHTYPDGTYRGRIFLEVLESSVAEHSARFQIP
Chain of recombinant mouse-TIGIT (mouse) (P86176 29-148 limits assumed): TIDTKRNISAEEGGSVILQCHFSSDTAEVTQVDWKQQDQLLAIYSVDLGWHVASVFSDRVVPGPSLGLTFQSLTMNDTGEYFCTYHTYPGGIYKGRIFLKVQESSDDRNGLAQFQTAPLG

For orientation: EC50 means the concentration needed to bring the measured effect to its halfway point. Low readings indicate a more potent agent, high ones a less potent agent. In general, EC50 (read off the curve) refers to the concentration needed to bring the measured effect to its halfway point. Substance “Reference Ab 2 (reference anti-human-TIGIT antibody with the amino acid sequences of Tiragolumab, U.S. 2017/0088613 A1)” came in with an EC50, TIGIT blockade NFAT luciferase reporter assay in assay [1] of 0.72 nM. The substance also came in with a concentration giving a half-maximal response (EC50) in assay [2] of 0.61 nM. Besides, the half-maximal effective concentration (EC50 (read off the curve)) in assay [3] was 0.1 µg/mL; in assay [4], 0.1 µg/mL; in assay [5], 0.5 nM.
Consider “anti-mouse TIGIT reference antibody (Biolegend #142101)”, for which the EC50 (read off the curve) in assay [6] was found to be 0.08 µg/mL.
